The values below come from paper PMC6876712, “MglA functions as a three-state GTPase to control movement reversals of Myxococcus xanthus” (Nature Communications, 2019).

Data set [1] concerns the target T1, MglB (MglB-2 construct, 6xHis tag cleaved by TEV protease) (M. xanthus), Q1DB03.
T1 chain: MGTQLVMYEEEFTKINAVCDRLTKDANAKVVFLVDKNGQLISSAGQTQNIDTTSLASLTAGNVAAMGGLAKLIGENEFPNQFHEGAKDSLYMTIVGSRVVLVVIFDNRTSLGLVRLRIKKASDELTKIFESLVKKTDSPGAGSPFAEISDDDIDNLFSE
The experiment in a line: crystal structure; MglA-GTPγS/MglB complex; equimolar MglA and MglB with 20x GTPγS, purified by SEC; crystals in 0.2 M HEPES pH 7, 16% PEG 4000; 2.8 Å. The settings on record: remark: other sources report otherwise. (In general: SEC sorts molecules by how far they enter the pores of the column.)

Data set [2] concerns the target T1, MglB (MglB-2 construct, 6xHis tag …). The experiment in a line: SEC-MALS; MglB at 3 mg/mL in 20 mM Tris pH 7.5, 50 mM NaCl, 10 mM MgCl2; Superdex 75 10/300 GL. The settings on record: remark: other sources report otherwise.
Data set [3] deals with the molecule itself. The experiment in a line: crystal structure; unbound MglB (MglB-1), form 2 crystals in 0.1 M MES pH 6, 0.15 M ammonium sulfate, 15% PEG 4000; 20 molecules in the asymmetric unit; 2.39 Å.

B1: MglB (MglB-2 construct, 6xHis tag cleaved by TEV protease), Q1DB03 1-159 (natural protein)
chain: T1 chain
For orientation: stoichiometry N means the number of molecules, sites or subunits per partner or assembly. With B1, the stoichiometry N in data set [1] and in data set [2] was 2 throughout.

B2: MglB (MglB-1 construct, 34-residue N-terminal tag) (natural protein, M. xanthus)
chain: GTQLVMYEEEFTKINAVCDRLTKDANAKVVFLVDKNGQLISSAGQTQNIDTTSLASLTAGNVAAMGGLAKLIGENEFPNQFHEGAKDSLYMTIVGSRVVLVVIFDNRTSLGLVRLRIKKASDELTKIFESLVKKTDSPGAGSPFAEISDDDIDNLFSE
notes: MglB, GAP of MglA, Myxococcus xanthus; residues 133-165 not visible in the crystal; No cleavage of the tag is described
On to B2, for which, in data set [3], the “stoichiometry N” value was 4.
